{
  "source": "patent US10662230B2",
  "about": "“Cyclic RGD cell-binding motif and uses thereof” (Spiber Technologies AB, priority 2015, dated 2020)",
  "key": {"[1]": {"test_system": "Human mesenchymal stem cells (hMSC)", "assay": "Early attachment assay, mesenchymal stem cells on silk films", "assay_type": "cell-based", "details": "MSC, 1 h adhesion to film", "description": "Human mesenchymal stem cells (hMSC, Gibco) from bone marrow were grown in culture flasks coated with CELLstart (Gibco) in complete StemPro MSC serum free medium CTS (Gibco) containing […] fibroblast growth factor […] (Gibco) and 2 mM Glutamax (Gibco).\n(§1) Cells were harvested at passage 3-8, seeded at 20 000/cm^2 and allowed to adhere to the films or controls for 1 h in a cell incubator before gentle washing twice with pre-warmed phosphate buffered saline (PBS) followed by 10 min fixation with 96% ethanol. After three washings in water, cells were stained for 30 min with 0.1% Crystal Violet in H2O. Plates were dried after extensive washing in water.\nAttachment and morphology of cells bound to the films obtained in Example 3 were documented by taking micrographs at 2× and 10× magnification in an inverted bright field microscope. The color was then dissolved in 40 μL 20% acetic acid for 10 min, and 35 μL of the solution was transferred to a 384-well plate for optical density measurement at 595 nm (TECAN Infinite M200). Wells with cells fixed without pre-washing was used as positive control. Wells with no cells were used as blank. Experiments were run in hexaplicates and repeated three times. […]"}, "[2]": {"test_system": "primary keratinocytes (NHEK)", "assay": "Cell viability analysis with Alamar Blue", "assay_type": "cell-based, human", "details": "seeding 3 500 cells/cm^2, day 3 and day 6", "description": "For microscopic studies, the proteins were casted as films in chamber glass slides (LabTekII). For Alamar blue experiments, where whole well coverage is desired, the cell culture wells were coated with a covering protein solution of 0.3 mg/ml for 2 h before the liquid was removed. Films and coated surfaces were allowed to dry over night at 25° C. and 30% rh under sterile conditions, then washed twice with sterile 20 mM phosphate buffer, pH 7.4, and pre-incubated with complete cell culture medium for 1 h at 37° C. with 5% CO2 before cell seeding.\nCell growth of primary keratinocytes (NHEK) after initial low seeding density 3 500 cells/cm^2 on wells coated with films of WT-silk (SEQ ID NO: 2) or FNCC-silk (SEQ ID NO: 13) in 96-well plates was monitored with Alamar Blue cell viability assay (Molecular Probes) every third day during the culture period. After 4 h incubation with Alamar blue (diluted 1:10 in cell culture medium), fluorescence intensity of 90 μL supernatants from the cultures was measured with a fluorescence plate reader (CLARIOstar, BMG Labtech) using excitation at 544 nm and emission at 595 nm. Two independent experiments were performed where films were analysed in hexaplicates. Fluorescence intensities, correlating the number of living cells in each well, were plotted over time to yield growth profiles of cells seeded on silk with different cell binding motifs."}, "[3]": {"test_system": "Normal human epidermal keratinocytes (KC)", "assay": "Early attachment assay, keratinocytes on silk films", "assay_type": "cell-based", "description": "Normal human epidermal keratinocytes from adult skin (NHEK-ad) were purchased from Lonza. Subculture, proliferation and migration experiments were done in KGM-Gold (Lonza), containing bovine pituitary extract, whereas adhesion experiments were performed in KGM-CD (chemically defined), supplemented with CaCl2) to give 1.2 mM Ca^2+.\nas §1\nAttachment and morphology of cells bound to the films obtained in Example 3 were documented by taking micrographs at 2× and 10× magnification in an inverted bright field microscope. The color was then dissolved in 40 μL 20% acetic acid for 10 min, and 35 μL of the solution was transferred to a 384-well plate for optical density measurement at 595 nm (TECAN Infinite M200). Wells with cells fixed without pre-washing was used as positive control. Wells with no cells were used as blank. Experiments were run in hexaplicates and repeated three times.\nDetermination of cell coverage area within a defined region (9.12 mm^2) of the micrographs (at 2× magnification) was done using the software NIS elements BR (Nikon).\nAfter seeing this positive effect of the introduced FNCC motif, we wanted to find out how well the FNCC-silk would compare to native, full length fibronectin, where the RGD is presented on a turn loop constrained by the structure. We therefore used fibronectin from bovine plasma (BFN) to coat cell culture wells, as well as naked cell culture treated plastic (TCT), on which KC can be cultured, as a control. Serum-free experimental conditions was chosen to avoid possible interactions between the matrices and serum proteins that potentially could give rise to increased cell adherence.\nFor this purpose, we used two FN-silk variants where a linear RGD presentation is expected (FIG. 1a). The first variant (FNVS; SEQ ID NO: 15), contains the original sequence of the RGD-containing motif in fibronectin, to show the effect of the native flanking amino acids without influence of the loop conformation. In the second variant (FNSS; SEQ ID NO: 14), the two flanking cysteines in FNCC were substituted for serine, which resembles cysteine but lacks the —SH-group and is therefore unable to form disulfide bridges. The different FN-silk variants, as well as RGD-silk (SEQ ID NO: 16) and WT-silk (SEQ ID NO: 2), were evaluated with primary KC. Cells were analyzed both for early attachment (FIG. 5), spreading and formation of stress fibers (FIG. 6), and focal adhesions (FIG. 7). Early attachment assay and cellular stainings were performed as detailed in Example 6."}, "[4]": {"assay": "Fabrication of cell culture matrices (fiber, film, foam, free-standing film)", "assay_type": "physicochemical", "description": "Briefly, petri dishes were coated at room temperature with recombinant spider silk solution at a concentration of 0.3 mg/ml to generate films. Foams were made by rapid pipetting of the silk solution, and fibers were formed by gentle wagging in 15 ml tube followed by cutting into smaller pieces.\nFree-standing films were prepared by applying of a droplet of protein solution (3 mg/ml) onto a ˜3 mm wide frame of metal wire hanging hooked up in a well of a 96-well plate and allowed to dry over night at 25° C. and 30% rh under sterile conditions.\nIt was observed that a spider silk protein functionalized with a disulfide-looped RGD motif self-assembles into stable matrices. As shown by the micrographs in FIG. 2a, the FNCC-4RepCT (SEQ ID NO: 13) protein could be presented as matrices in the format of fiber (upper), film (middle) and free standing film (lower). Scale bars in FIG. 2a indicate 500 μm (upper & middle) and 1000 μm (lower). […] The smooth film formats (casted and free-standing) were used in the subsequent cell adhesion experiments to rule out the effects of matrix morphology."}, "[5]": {"test_system": "Human Mesenchymal stem cells", "assay": "Cell culture on FNCC silk coatings", "assay_type": "cell-based", "details": "coating 0.1 mg/ml", "description": "After purification, solutions of FNCC-silk protein (SEQ ID NO: 13) were used to coat cell culture plates (Sarstedt, hydrophobic plates for suspension cells). Briefly, the protein solutions were diluted to 0.1 mg/ml in Tris buffer, and allowed to incubate at room temperature for 30 minutes before removal and wash.\nCells were harvested using trypsination (TrpLE) and seeded onto the FNcc-silk coatings at suitable cell density (3-10 000 cells/cm2). Cell growth was monitored with Alamar Blue cell viability assay (Molecular Probes) regularly (every 2-3 day). At the end point, after 7-14 days, Live/dead staining was performed."}},
  "note": "“Also recorded” adds a separate entry of the source.",
  "data": [
    {"molecule": "FNCC-silk: recombinant spider silk protein 4RepCT with N-terminal cysteine-looped RGD motif CTGRGDSPAC (SEQ ID NO: 10) (protein, cyclic disulfide loop; Fusion protein; DISULFID (5)..(14)) GPNSCTGRGDSPACGSASGQGGYGGLGQGGYGQGAGSSAAAAAAAAAAAAGGQGGQGQGGYGQGSGGSAAAAAAAAAAAAAAAGRGQGGYGQGSGGNAAAAAAAAAAAAAAAGQGGQGGYGRQSQGAGSAAAAAAAAAAAAAAGSGQGGYGGQGQGGYGQSSASASAAASAASTVANSVSRLSSPSAVSRVSSAVSSLVSNGQVNMAALPNIISNISSSVSASAPGASGCEVIVQALLEVITALVQIVSSSSVGYINPSAVNQITNVVANAMAQVMG", "values": [
      {"measurement": "attachment seen in micrographs", "setting": "[1]; crystal violet staining", "result": "clear improvement of attachment is seen on the FNCC films compared to both RGD and WT"},
      {"measurement": "OD of crystal violet dissolved from adhered cells (number of bound cells)", "setting": "[1]; seeding 20 000/cm2, serum-free", "result": "significantly more cells had bound to the FNCC-silk after 1 h compared to WT silk"},
      {"measurement": "level of viable cells (Alamar Blue fluorescence)", "setting": "[2]", "result": "increased level of viable cells on FNCC-silk compared to WT-silk"},
      {"measurement": "adhesion in each individual experiment", "setting": "[3]; KC on tested silk films", "result": "most efficient adhesion of the tested films"},
      {"measurement": "attachment seen in micrographs", "setting": "[3]; KC, 1 h adhesion to film, crystal violet staining", "result": "clear improvement of attachment is seen on the FNCC films compared to both RGD and WT"},
      {"measurement": "cell coverage area within a defined region (9.12 mm^2)", "setting": "[3]; KC, 1 h adhesion to silk films, seeding 20 000/cm2", "result": "increased attachment (i.e. area covered by cells) compared to both FNSS and FNVS; also recorded: significantly higher adhesion of KC compared to RGD-silk"},
      {"measurement": "cell coverage area within a defined region (9.12 mm^2)", "setting": "[3]; KC, 1 h adhesion to silk films, seeding 20 000/cm2, listed as FNCC", "result": "significantly larger than on both WT- and RGD-silk"},
      {"measurement": "cell coverage area within a defined region (9.12 mm^2)", "setting": "[3]; KC, 1 h adhesion, comparison with bovine fibronectin coating and TCT plastic, serum-free", "result": "bound equally well to the BFN and the FNCC-silk after 1 h adherence, and importantly both significantly better than TCT"},
      {"measurement": "OD of dissolved crystal violet", "setting": "[3]; KC, 1 h adhesion, pooled data from 8 experiments (data not shown)", "result": "very similar results"},
      {"measurement": "effect of reducing agents added to the silk solution before films were casted", "setting": "[3]; KC, DTT, β-mercaptoethanol or TCEP added", "result": "no differences compared to non-reduced FNCC film were detected"},
      {"measurement": "formation of free-standing films", "setting": "[4]", "result": "possible to form free-standing films"},
      {"measurement": "stability and integrity of fibers, film and foam", "setting": "[4]", "result": "higher stability and integrity than noted for linear RGD silk proteins (RGD-4RepCT, SEQ ID NO: 16) and WT silk proteins"},
      {"measurement": "growth profile (Alamar Blue)", "setting": "[5]; 7-14 days", "result": "positive growth profile"},
      {"measurement": "viable cells at the end point (Live/dead staining)", "setting": "[5]; after 7-14 days", "result": "> 80", "unit": "%"}
    ]}
  ]
}
